Data as given in patent US20130164299A1 (CENTRE NATIONAL DE LA RECHERCHE SCIENTIFIQUE, published 2013).

T1: AICL, expressed on transfected 293T cells (UniProt Q92478 1-149, limits assumed)
T1 construct: whole, on cells; also called AICL-transfectants
T1 sequence (looked up): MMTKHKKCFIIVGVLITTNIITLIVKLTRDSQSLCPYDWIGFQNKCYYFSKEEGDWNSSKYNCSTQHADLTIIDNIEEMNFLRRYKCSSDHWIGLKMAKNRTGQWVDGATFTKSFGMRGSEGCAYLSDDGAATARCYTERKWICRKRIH

T2: lectin-like transcript 1 (LLT1), recombinantly expressed on cells (human, UniProt Q9UHP7 1-191)
T2 construct: In the Western blot the protein stood in cell extracts, in the IHC validation in fixed cells; also called CLEC2D; C1R-LLT1 transfectants
T2 sequence: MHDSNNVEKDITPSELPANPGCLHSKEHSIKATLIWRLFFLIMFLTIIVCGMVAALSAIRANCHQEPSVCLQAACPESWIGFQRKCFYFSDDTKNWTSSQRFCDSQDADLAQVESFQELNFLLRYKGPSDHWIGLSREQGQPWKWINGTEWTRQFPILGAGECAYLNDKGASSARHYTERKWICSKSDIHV

T3: CLEC2A-Fc protein (UniProt Q6UVW9 49-174)
T3 construct: Negative control coat in the ELISA; not shown: Fc portion recognised by anti-human Ig
T3 sequence (looked up): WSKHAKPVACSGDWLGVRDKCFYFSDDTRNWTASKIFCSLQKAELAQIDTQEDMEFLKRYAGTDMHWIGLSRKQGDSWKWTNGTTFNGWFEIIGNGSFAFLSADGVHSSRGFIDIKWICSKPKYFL

T4: LLT1-Fc fusion protein (human, UniProt Q9UHP7 60-191, limits assumed)
T4 construct: also called LLT1-hFc; LLT-Fc; not shown: human Fc (hFc)
T4 sequence: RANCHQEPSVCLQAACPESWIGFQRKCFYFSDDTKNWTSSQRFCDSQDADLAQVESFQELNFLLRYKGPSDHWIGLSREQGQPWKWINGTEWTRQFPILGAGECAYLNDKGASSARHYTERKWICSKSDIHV

B1: anti-LLT14F (antibody, mouse IgG1, V domains shown)
VH: EVQLVESGGGLVQPGGSLKLSCAASGFTVSSYGMSWVRQIPDKRLELVATINSNGGRTFYPDSVKGRFTISRDNAQNTLYLQMSSLKSEDTAMYYCARDGGYWAHFDYWGQGTTLTVSS
VL: DVLMTQTPLSLPVSLGDQASISCRSSQSIVHSNGNTYLEWYLQKPGQSPKLLIYKVSNRFSGVPDRFSGSGSGTDFTLKISRVEAEDLGVYYCFQGSHVPWTFGGGTKLEIKR
notes: also called anti-LLT14F68; anti-LLT1-4F68
B2: anti-LLT14F-hIgG4 (antibody, V domains shown)
VH: B1 VH
VL: B1 VL
notes: Murine variable domains of anti-LLT14F on human kappa/IgG4 scaffold; also called chimeric mouse/human anti-LLT14F; ChimLLT14F; not shown: human IgG4 heavy chain constant region (CH) with hinge mutation S241P; human kappa light chain constant domain (CL)
B3: anti-LLT12F1A5 (antibody, mouse IgG1, V domains shown)
VH: EVQLQQSGAELVRSGASVKLSCTASGFNIKDYYMHWVKQRPEQGLEWIGWIDPENGDTEYAPKFQGKATVTADTSSNTVYLQLSSLTSEDTAVYYCNGEIITTTAWFTYWGQGTLVTVSA
VL: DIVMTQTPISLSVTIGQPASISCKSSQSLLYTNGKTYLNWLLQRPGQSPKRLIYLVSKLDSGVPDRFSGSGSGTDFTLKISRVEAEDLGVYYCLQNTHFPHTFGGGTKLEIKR
notes: also called anti-LLT2F1; anti-LLT2F1A5

Experiments:
[1] = biological target: T1, AICL, expressed on transfected 293T …; experiment: flow cytometry on 293T cells transfected with AICL
[2] = biological target: T2, lectin-like transcript 1 (LLT1), …; experiment: flow cytometry on C1R-LLT1 transfectants, anti-mouse IgG secondary antibody
Procedure: (§1) C1R-LLT1 transfectants and parental C1R cells were washed in PBS containing 1% FCS and incubated with anti-LLT14F or anti-LLT14F-hIgG4 antibody at concentrations 0.0003-10 μg/ml as indicated in FIG. 4 for 30 min at 4° C. followed by incubation with fluorochrome-conjugated anti-mouse or anti-human IgG secondary antibodies, respectively. Samples were washed three times in PBS containing 1% FCS and analysed by flow cytometry.

CLEC2A-Fc protein = biological target: T3, CLEC2A-Fc protein; experiment: ELISA, coated Fc fusion protein
Procedure: Anti-LLT12F1A5 and anti-LLT14F were compared to mAb's 4C7 and MAB3480 with respect to binding to CLEC2D (LLT1) fusion proteins in the ELISA application. Wells were coated with Fc fusion proteins representing full-length CLEC2D or splice variant 2 and 4 hereof (CLEC2D-iso2 and -iso4, respectively). Full-length CLEC2D contains exons 1, 2, 3, 4a and 5, whereas isoforms 2 and 4 contain exons 1, 2, 3, 4a, 4b, 5 and exons 1, 2, 3, 5, respectively. Coated wells were incubated with anti-LLT12F1A5, anti-LLT14F, MAB3480 or 4C7 antibodies. Wells not coated with protein (PBS) or coated with CLEC2A-Fc protein were included as negative controls. Antibody binding was detected by HRP-conjugated anti-mouse Ig secondary antibody and chromogen. HRP-conjugated anti-human Ig antibody was included as a positive control that recognized the Fc portion of both fusion proteins.

LLT1-Fc fusion protein [3] = biological target: T4, LLT1-Fc fusion protein; experiment: blocking assay by flow cytometry: binding of LLT1-Fc multimers to CD161 on 293T-CD161 cells in the presence of the antibody
Procedure: A multimeric complex was generated by incubating the LLT1-Fc fusion protein with biotinylated protein A (Pierce) at a molar ratio of 1:1. Saturating amounts of purified hIgG were added to block the remaining free protein A sites. A multimer control was generated using protein A-biotin saturated with purified hIgG. These complexes were conjugated to streptavidin-allophycocyanin (BD Biosciences). […] Anti-LLT14F (4F) or control IgG1 (ctrl IgG1) was added at concentrations 0.01-200 μg/ml. For comparison, anti-LLT12F1 (2F1A5) and AF3480 were tested in parallel with 4F in this assay. Binding of LLT1-multimers was evaluated by flow cytometry.

[4] = biological target: T2, lectin-like transcript 1 (LLT1), …; experiment: flow cytometry on C1R-LLT1 transfectants, anti-human IgG secondary antibody
Procedure: as §1

LLT1-Fc fusion protein [5] = biological target: T4, LLT1-Fc fusion protein; experiment: SPR (Biacore T100, 25 °C); LLT1-Fc immobilised on CM5 chip (500 RU), antibody 3.125 to 100 nM in solution
Procedure: Surface plasmon resonance measurements were performed on a Biacore T100 apparatus (Biacore) at 25° C. In all Biacore experiments, HBS buffer supplemented with 0.05% surfactant P20 served as running buffer and sensorgrams were analyzed with Biaevaluation software. Recombinant LLT1-Fc fusion protein (described by Aldemir et al in Journal of Immunology, 2005 vol. 176: 7791-7795) were immobilized covalently to carboxyl groups in the dextran layer on a Sensor Chip CM5 (Biacore). The sensor chip surface was activated with EDC/NHS(N-ethyl-N′-(3-dimethylaminopropyl) carbodiimidehydrochloride and N-hydroxysuccinimide, Biacore). Proteins diluted in coupling buffer (10 mM acetate, pH 4.5) were injected. Deactivation of the remaining activated groups was performed using 100 mM ethanolamine pH 8 (Biacore).
Anti-LLT12F1A5 was tested in a range of concentrations from 3.125 to 100 nM for binding to immobilized LLT1-Fc protein (500 RU).

| Binder | binding result [1] | EC50 (read off the curve) [2] | binding result (CLEC2A-Fc protein) | IC50 (read off the curve) (LLT1-Fc fusion protein [3]) | EC50 (read off the curve) [4] | Kd (LLT1-Fc fusion protein [5]) |
| --- | --- | --- | --- | --- | --- | --- |
| B1 | no binding | ~0.04 µg/mL | no binding | ~6 µg/mL | – | – |
| B2 | – | – | – | – | ~0.05 µg/mL | – |
| B3 | no binding | – | no binding | – | – | 1.24 nM |
